For assay [1], the target named is RAGE (receptor for advanced glycation end products), endogenous in MDA-MB-231 cells (human (endogenous in MDA-MB-231)) (UniProt Q15109).
The target is the same in assay [2]. This is another data set of the same source.

Sequence of UniProt Q15109 (Q15109 23-404): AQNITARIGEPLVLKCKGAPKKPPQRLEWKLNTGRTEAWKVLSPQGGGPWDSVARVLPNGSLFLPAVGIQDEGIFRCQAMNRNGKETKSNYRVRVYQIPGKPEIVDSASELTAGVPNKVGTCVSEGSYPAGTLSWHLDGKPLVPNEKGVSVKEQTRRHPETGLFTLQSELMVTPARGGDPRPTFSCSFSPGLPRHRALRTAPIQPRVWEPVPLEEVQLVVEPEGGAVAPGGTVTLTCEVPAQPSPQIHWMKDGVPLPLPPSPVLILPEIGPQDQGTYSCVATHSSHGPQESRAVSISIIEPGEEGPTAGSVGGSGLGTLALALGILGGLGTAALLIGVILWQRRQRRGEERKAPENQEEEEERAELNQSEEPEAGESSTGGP

Take “recombinant human acetylated APE1/Ref-1 (apurinic apyrimidinic endonuclease 1/redox factor-1) (from UniProt P27695 1-318) (natural protein)”: in assay [1], the cell viability of ASA-pretreated MDA-MB-231 cells after removal of Ac-APE1/Ref-1 with an anti-APE1/Ref-1 antibody (2 ug) was determined as 80% and the cytoplasmic histone-associated DNA fragmentation in ASA-pretreated MDA-MB-231 cells after removal of Ac-APE1/Ref-1 with an anti-APE1/Ref-1 antibody (2 ug) (% of the control level) came to 33. In assay [2], “secreted acetylated APE1/Ref-1 from ASA/TSA-treated MDA-MB-231 cells (from UniProt P27695 1-318) (natural protein)” had a phosphorylation of p38 MAPK at Tyr182 in MDA-MB-231 cells treated with 5 mM ASA (3 h to 24 h) of 62%.

The values above are taken from publication PMC4695125.
